Measured values as given in doi:10.1101/2020.10.30.342212.
Read-outs that look alike come from different tables or passages of the source.

Tests used:
[1] = biological target: PrgL_(32-208)-His, soluble C-terminal NTF2-like domain of PrgL (Enterococcus faecalis (plasmid pCF10)); assay: SEC-MALS
[2] = biological target: PrgL_(32-208)-His, soluble C-terminal NTF2-like domain of PrgL (Enterococcus faecalis (plasmid pCF10)); assay: SEC-MALS; remark: listed apart in the source
[3] = biological target: full-length PrgL-GFP (Enterococcus faecalis (plasmid pCF10)); assay: SEC
[4] = biological target: full-length PrgL-His (Enterococcus faecalis (plasmid pCF10)); assay: cross-linking

Substance: PrgL_(32-208)-His, soluble C-terminal NTF2-like domain of PrgL (domain or fragment)
- stoichiometry N [1]: 2
- stoichiometry N [2]: 10 to 12

Substance: full-length PrgL-GFP (natural protein)
- stoichiometry N [3]: 2

Substance: full-length PrgL-His (natural protein)
- stoichiometry N [4]: 2
